Experimental findings from patent EP1892250A2 are described below.

The target of test [1] is α6β1 integrin on human cells (1064SK fibroblasts, endothelial cells) (human) (UniProt P23229). In words: cell-based or functional assay.
Test [2] deals with αvβ3 integrin on human cells (human) (UniProt P06756). As to the kind of experiment: cell-based or functional assay.
Sequence of αvβ3 integrin on human cells (human) (P06756 31-1048, chain 1 of 2): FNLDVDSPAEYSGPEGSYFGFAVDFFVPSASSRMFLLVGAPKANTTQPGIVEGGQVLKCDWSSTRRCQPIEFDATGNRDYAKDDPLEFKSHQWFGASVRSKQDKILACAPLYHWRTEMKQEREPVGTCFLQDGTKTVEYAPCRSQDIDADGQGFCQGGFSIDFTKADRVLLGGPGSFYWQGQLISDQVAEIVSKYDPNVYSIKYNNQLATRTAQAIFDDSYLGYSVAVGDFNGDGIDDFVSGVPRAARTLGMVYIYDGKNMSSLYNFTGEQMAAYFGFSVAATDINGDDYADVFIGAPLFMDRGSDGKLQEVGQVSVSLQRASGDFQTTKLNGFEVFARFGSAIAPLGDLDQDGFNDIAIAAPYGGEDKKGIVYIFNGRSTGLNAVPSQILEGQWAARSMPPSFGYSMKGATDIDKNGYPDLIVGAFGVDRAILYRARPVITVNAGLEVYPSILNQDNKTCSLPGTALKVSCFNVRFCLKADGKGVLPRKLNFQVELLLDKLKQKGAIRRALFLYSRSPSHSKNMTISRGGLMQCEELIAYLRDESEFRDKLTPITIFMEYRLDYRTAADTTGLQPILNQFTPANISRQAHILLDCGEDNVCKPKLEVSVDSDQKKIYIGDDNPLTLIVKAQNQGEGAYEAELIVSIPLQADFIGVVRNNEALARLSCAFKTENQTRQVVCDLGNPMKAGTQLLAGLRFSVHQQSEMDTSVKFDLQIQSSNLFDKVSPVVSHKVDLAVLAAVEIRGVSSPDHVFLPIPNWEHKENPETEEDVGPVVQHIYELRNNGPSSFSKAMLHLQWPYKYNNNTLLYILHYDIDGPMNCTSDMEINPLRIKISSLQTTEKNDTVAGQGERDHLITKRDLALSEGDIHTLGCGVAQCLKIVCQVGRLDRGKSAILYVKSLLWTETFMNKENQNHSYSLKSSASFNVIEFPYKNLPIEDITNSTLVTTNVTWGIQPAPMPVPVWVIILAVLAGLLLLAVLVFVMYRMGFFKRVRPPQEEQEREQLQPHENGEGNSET
Sequence of αvβ3 integrin on human cells (human) (P05106 27-788, chain 2 of 2, further chain): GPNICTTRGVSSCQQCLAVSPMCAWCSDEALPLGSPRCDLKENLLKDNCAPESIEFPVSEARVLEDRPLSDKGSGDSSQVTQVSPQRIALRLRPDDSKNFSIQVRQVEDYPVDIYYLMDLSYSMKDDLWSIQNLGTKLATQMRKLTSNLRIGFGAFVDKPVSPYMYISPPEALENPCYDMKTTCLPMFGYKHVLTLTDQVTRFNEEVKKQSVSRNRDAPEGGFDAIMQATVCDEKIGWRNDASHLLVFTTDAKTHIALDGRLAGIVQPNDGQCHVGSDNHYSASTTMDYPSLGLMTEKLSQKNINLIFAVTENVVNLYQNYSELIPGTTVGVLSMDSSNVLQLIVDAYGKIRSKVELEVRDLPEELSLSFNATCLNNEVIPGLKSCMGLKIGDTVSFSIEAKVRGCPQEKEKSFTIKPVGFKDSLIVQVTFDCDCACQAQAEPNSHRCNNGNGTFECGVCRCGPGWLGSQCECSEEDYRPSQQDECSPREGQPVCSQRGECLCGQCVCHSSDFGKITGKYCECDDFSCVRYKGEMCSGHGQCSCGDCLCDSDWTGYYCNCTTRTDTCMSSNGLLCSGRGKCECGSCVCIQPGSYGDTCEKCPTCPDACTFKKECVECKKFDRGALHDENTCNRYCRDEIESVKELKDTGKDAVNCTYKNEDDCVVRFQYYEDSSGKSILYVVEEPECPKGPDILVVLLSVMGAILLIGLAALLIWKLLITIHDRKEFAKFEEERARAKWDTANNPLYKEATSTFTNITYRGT

Sequence of α6β1 integrin on human cells (1064SK fibroblasts, endothelial cells) (human) (P23229 24-1130, chain 1 of 2): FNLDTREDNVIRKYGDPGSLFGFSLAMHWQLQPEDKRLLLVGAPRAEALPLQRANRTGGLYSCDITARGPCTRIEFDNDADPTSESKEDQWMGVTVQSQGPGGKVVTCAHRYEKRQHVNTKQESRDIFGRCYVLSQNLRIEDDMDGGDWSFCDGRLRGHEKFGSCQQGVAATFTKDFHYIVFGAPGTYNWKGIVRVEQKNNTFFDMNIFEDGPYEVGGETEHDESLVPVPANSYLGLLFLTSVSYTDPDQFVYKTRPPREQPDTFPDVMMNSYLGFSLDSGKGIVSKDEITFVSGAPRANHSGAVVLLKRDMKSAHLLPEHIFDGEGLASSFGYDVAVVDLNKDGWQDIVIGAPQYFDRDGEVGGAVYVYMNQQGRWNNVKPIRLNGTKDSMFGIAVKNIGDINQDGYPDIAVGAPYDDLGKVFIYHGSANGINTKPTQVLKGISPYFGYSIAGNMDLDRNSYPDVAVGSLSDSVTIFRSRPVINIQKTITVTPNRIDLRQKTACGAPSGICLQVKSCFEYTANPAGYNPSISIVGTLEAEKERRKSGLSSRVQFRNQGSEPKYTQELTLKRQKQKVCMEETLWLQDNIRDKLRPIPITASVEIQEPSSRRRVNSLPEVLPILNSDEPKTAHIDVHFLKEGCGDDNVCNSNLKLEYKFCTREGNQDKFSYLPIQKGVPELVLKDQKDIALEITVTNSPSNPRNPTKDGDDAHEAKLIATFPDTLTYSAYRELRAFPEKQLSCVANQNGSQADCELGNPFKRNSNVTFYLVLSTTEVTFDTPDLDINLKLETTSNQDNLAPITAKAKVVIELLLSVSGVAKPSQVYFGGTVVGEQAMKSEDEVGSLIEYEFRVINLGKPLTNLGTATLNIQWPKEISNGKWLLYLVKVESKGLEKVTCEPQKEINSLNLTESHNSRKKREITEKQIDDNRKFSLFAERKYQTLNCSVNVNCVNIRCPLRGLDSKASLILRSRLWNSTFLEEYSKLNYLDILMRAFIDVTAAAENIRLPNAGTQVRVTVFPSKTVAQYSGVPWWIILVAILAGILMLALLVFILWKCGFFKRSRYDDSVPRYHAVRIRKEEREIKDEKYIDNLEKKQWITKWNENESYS
Sequence of α6β1 integrin on human cells (1064SK fibroblasts, endothelial cells) (human) (P05556 21-798, chain 2 of 2, further chain): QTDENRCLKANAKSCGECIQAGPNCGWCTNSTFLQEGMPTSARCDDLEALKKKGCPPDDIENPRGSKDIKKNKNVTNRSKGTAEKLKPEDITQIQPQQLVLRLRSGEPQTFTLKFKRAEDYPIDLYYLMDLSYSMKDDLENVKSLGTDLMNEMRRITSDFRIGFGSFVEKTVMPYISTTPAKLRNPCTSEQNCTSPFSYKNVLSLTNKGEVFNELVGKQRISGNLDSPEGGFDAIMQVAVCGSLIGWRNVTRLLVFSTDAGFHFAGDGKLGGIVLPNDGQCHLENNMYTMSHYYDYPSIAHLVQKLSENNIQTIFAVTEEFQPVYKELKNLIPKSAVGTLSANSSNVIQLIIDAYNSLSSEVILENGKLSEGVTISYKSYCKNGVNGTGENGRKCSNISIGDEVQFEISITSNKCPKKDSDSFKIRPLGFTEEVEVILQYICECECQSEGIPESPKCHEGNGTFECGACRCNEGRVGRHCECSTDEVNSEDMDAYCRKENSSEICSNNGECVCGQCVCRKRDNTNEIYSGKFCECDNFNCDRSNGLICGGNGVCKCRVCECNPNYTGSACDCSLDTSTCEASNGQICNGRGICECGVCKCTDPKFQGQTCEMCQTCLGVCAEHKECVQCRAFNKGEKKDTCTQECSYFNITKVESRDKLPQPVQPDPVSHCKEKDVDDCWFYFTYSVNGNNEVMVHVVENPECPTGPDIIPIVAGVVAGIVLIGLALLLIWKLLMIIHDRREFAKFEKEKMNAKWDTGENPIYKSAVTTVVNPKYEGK

In test [1], “human Cyr61 (from UniProt O00622 25-381) (ligand)” showed a 1064SK fibroblast adhesion to Cyr61 (2 µg/ml), with anti-α6 antibody 20 µg/ml (A620) of 0.08 A620; a 1064SK fibroblast adhesion to Cyr61 (2 µg/ml), with anti-β1 antibody JB1A 50 µg/ml (A620) of 0.14 A620; a 1064SK fibroblast adhesion to Cyr61 (2 µg/ml), without anti-α6 antibody (A620) of 0.53 A620; a 1064SK fibroblast adhesion to Cyr61 (2 µg/ml), without anti-β1 antibody JB1A (A620) of 0.53 A620. For the same substance, in test [1], the 1064SK fibroblast adhesion to Cyr61 (A620), antibody: None (control) turned out to be 0.58 A620; the 1064SK fibroblast adhesion to Cyr61 (A620), antibody: anti-α1 (40 µg/ml) was determined as 0.54 A620; the 1064SK fibroblast adhesion to Cyr61 (A620), antibody: anti-α1 + anti-α2 + anti-α3 (40 µg/ml each) turned out to be 0.56 A620; the 1064SK fibroblast adhesion to Cyr61 (A620), antibody: anti-α2 (40 µg/ml) was 0.6 A620. Also, in test [1], the 1064SK fibroblast adhesion to Cyr61 (A620), antibody: anti-α3 (40 µg/ml) turned out to be 0.55 A620; the 1064SK fibroblast adhesion to Cyr61 (A620), antibody: anti-α4 (40 µg/ml) was 0.56 A620; the inhibition of 1064SK fibroblast adhesion to Cyr61 by anti-α6 antibody is > 80%; the inhibition of 1064SK fibroblast adhesion to Cyr61 by anti-β1 antibody JB1A was found to be 75%. In addition, the inhibition of 1064SK fibroblast adhesion to wild-type Cyr61 by anti-α6 antibody (20 µg/ml) in test [1] turned out to be 78%. Further, in test [2], the HUVE cell adhesion to wild-type Cyr61 (5 µg/ml), relative binding capacity, pre-incubation: Anti-αvβ3 antibody (LM609, 40 µg/ml) is 42%; the HUVE cell adhesion to wild-type Cyr61 (5 µg/ml), relative binding capacity, pre-incubation: EDTA (2.5 mM) was 22%; the HUVE cell adhesion to wild-type Cyr61 (5 µg/ml), relative binding capacity, pre-incubation: None was 100%; the HUVE cell adhesion to wild-type Cyr61 (5 µg/ml), relative binding capacity, pre-incubation: RGD peptide (1 mM) was 50%.
In test [1], mouse laminin (ligand) came in with a 1064SK fibroblast adhesion to laminin (5 µg/ml), with anti-α6 antibody 20 µg/ml (A620) of 0.48 A620; a 1064SK fibroblast adhesion to laminin (5 µg/ml), without anti-α6 antibody (A620) of 0.62 A620; an inhibition of 1064SK fibroblast adhesion to laminin by anti-α6 antibody of 22%.
